{"source": "paper PMC10696041", "about": "(2023)", "target": "T1, PCPE1 (Homo sapiens (Human), UniProt Q15113)", "T1 chain": "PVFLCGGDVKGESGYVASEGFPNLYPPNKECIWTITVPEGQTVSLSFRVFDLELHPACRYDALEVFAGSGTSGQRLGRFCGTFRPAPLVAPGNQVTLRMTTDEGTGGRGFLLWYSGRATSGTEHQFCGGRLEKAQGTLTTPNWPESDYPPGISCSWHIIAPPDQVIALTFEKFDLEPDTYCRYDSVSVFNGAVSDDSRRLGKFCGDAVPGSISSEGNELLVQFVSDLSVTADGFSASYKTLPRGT", "experiment": "Ki app, fluorogenic peptide"}
{"binder": "BMP1 (protein) AATSRPERVWPDGVIPFVIGGNFTGSQRAVFRQAMRHWEKHTCVTFLERTDEDSYIVFTYRPCGCCSYVGRRGGGPQAISIGKNCDKFGIVVHELGHVVGFWHEHTRPDRDRHVSIVRENIQPGQEYNFLKMEPQEVESLGETYDFDSIMHYARNTFSRGIFLDTIVPKYEVNGVKPPIGQRTRLSKGDIAQARKLYKCPACGETLQDSTGNFSSPEYPNGYSAHMHCVWRISVTPGEKIILNFTSLDLYRSRLCWYDYVEVRDGFWRKAPLRGRFCGSKLPEPIVSTDSRLWVEFRSSSNWVGKGFFAVYEAICGGDVKKDYGHIQSPNYPDDYRPSKVCIWRIQVSEGFHVGLTFQSFEIERHDSCAYDYLEVRDGHSESSTLIGRYCGYEKPDDIKSTSSRLWLKFVSDGSINKAGFAVNFFK", "values": [{"measurement": "apparent Ki", "result": "> 150", "unit": "nM"}]}
